Entries after “also recorded” stand apart in the source; their conditions may differ.
Tests used:
PAR [1] = assay: co-immunoprecipitation with PAR in HeLa cells; assay type: cell-based
Procedure: The following experiment was performed to confirm whether AIF in fact binds to PAR in intact cells. Applicants exposed HeLa cells stably transduced with lentivirus C-terminal Flag-tagged mouse wild type AIF (WT-AIF-Flag) to MNNG, a DNA alkylating agent that activates PARP-1 and kills cells primarily through parthanatos. […] FIG. 2A comprises two side by side black and white photos of representative gels obtained by Applicants, showing the impact of MNNG upon these HeLa cells (left photo being HeLa cells without MNNG, and right photo being HeLa cells 2 hours after MNNG treatment at 50 μM for 15 min). […] FIG. 2B is a chart reporting the data regarding the relative intensity of the interaction pre and post MNNG for these experiments (*** indicates p<0.001).

Hq cortical neurons = assay: NMDA excitotoxicity in Hq cortical neurons; assay type: cell-based, mouse; conditions: lentivirus-transduced Hq cortical neurons, NMDA 500 μM for 5 min, 24, 36, 48 hours
Procedure: HQ cortical neuron cells were transduced with lentivirus carrying WT-AIF-Flag or Pbm-AIF-Flag. Non-transduced neurons and GFP-lentivirus infected cells were used as negative controls. […] In those photos, blue indicates Hoechst 33342 staining and red indicates propidium iodide staining. […] The cytotoxicity in these Hq cortical neurons was measured at 24 hours, 36 hours, and 48 hours after NMDA (500 μM for 5 min) treatment, and the data for this is reported in the graph of FIG. 18B.

Hq mice [2] = assay: NMDA excitotoxicity in hippocampal CA1 region of Hq mice; assay type: in vivo, mouse; conditions: AAV2 in CA1, 60 hours after NMDA
Procedure: Seven days following virus injection, Applicants injected NMDA into the right CA1 region and saline into the left CA1 region, and then assessed CA1 lesion volume 60 hours later. […] FIG. 20B is an array of six representative Nissl staining photos taken 60 hours post NMDA injection, while FIG. 20C is a graph of the experimental data obtained for lesion volume percentages.

[3] = test system: mitochondria isolated from cortical neurons; assay: in vitro AIF release from mitochondria of Hq cortical neurons; conditions: incubation with purified PAR for 30 minutes
Procedure: (§2) Unless otherwise set forth herein, mitochondria isolation and in vitro AIF release assays as referenced in the examples below were performed using the following materials and procedures. Mitochondria were prepared from HeLa cells and cortical neurons as follows by harvesting cells, re-suspending them in 2 ml MIB buffer (10 mM HEPES, pH 7.4, 300 mM sucrose, 1 mM EGTA), and homogenizing by 60 strokes with B type Dounce homogenizer. Nuclei were pelleted at 750×g for 5 minutes and mitochondria were spun down at 3,000×g for 10 minutes. Isolated mitochondria were dissolved in a minimum volume of sucrose buffer (10 mM HEPES, pH 7.4, 300 mM sucrose) and protein concentration was adjusted to 2 mg/ml. […] In vitro AIF release was carried out at room temperature for 30 minutes in assay buffer (20 mM HEPES, pH 7.4, 125 mM KCl, 2 mM K2HPO4, 4 mM MgCl2, 5 mM succinate, 2 mM rotenone, 3 μM ATP and 1 μM ADP) in the presence of 100 nM PAR and 1 mg/ml isolated mitochondria. […]
(§3) Next, Applicants used Hq cortical neurons transduced with WT-AIF-Flag or Pbm-AIF-Flag lentiviruses to determine whether PAR plays a direct role in mitochondrial AIF release. […] Three days after lentivirus infection, mitochondria were isolated and exposed to purified PAR to elicit in vitro AIF release by incubation with PAR for 30 minutes, and the levels of AIF were determined in the mitochondria and in the supernatant.

PAR [4] = assay: co-immunoprecipitation with PAR in Hq cortical neurons
Procedure: For co-immunoprecipitation, the post-nuclear cell extracts, which is the fraction prepared from whole cell lysates after removing nuclear proteins, were isolated in hypotonic buffer as previously described by S. Andrabi et al., and then incubated overnight with an antibody against PAR in the presence of protein A/G Sepharose (obtained from Santa Cruz Biotechnology, of Santa Cruz, Calif.), followed by immunoblot analysis with mouse anti-Flag antibody (obtained from Sigma). The proteins were separated on denaturing polyacrylamide gel electrophoresis (SDS-PAGE) and transferred to nitrocellulose membrane. […] After washing, the immune complexes were detected by the SuperSignal West Pico Chemiluminescent Substrate. The integrity of the nuclear and postnuclear subcellular fractions was determined by monitoring histone and MnSOD immunoreactivity, respectively.
To determine whether Pbm-AIF fails to bind to PAR in cultured cortical neurons, neuronal cultures were transduced by lentivirus with WT-AIF-Flag or Flag-tagged Pbm-AIF (“Pbm-AIF-Flag”). […] AIF was translocation to the nucleus for each neuron culture was monitored 2 hours after administration of NMDA (500 μM NMDA for 5 minutes). […]

HeLa cells = assay: AIF nuclear translocation in HeLa cells after MNNG; assay type: cell-based; conditions: MNNG 50 μM for 15 minutes, confocal image analysis
Procedure: (§1) Unless otherwise set forth herein, immunocytochemistry, immunohistochemistry and confocal microscopy as referenced in the examples entailed the following materials and procedures. For immunocytochemistry, cells were fixed 2 hours after treatment with 4% paraformaldehyde, permeabilized with 0.05% Triton X-100, and blocked with 3% bovine serum albumin in PBS. AIF was visualized by 2 μg/ml mouse anti-Flag/Cyt AffiniPure Donkey Anti-Mouse IgG or rabbit anti-AIF/Cy3 AffiniPure Donkey Anti-Rabbit IgG. Immunohistochemistry was performed using the antibody against Flag. Immunofluorescence analysis thereafter was carried out by using a LSM510 confocal laser scanning microscope (obtained from Carl Zeiss Microlmaging) as described by H. Wang et al. (J. Neurosci, 2004).

Hq mice [5] = assay: NMDA excitotoxicity in striatum of Hq mice
Procedure: 1 μl Lentivirus (5×1010 T.U./ml) carrying WT-AIF-Flag, Pbm-AIF-Flag, or GFP was injected into striatum on both sides of the brain (rostral, 0.4 mm; lateral+/−1.7 mm; ventral 3.5 mm from bregma), and 1 μl AAV2 (1×1013 T.U./ml) carrying WT-AIF-Flag, Pbm-AIF-Flag or GFP was injected into CA1 in hippocampi on both sides of the brain (posterior, 2.0 mm; lateral+/−1.5 mm; ventral 1.5 mm from bregma) using a stereotactic frame (Kopf) (0.02 ml/min). The needle was left in place for an additional 8 minutes after injection. One week after the first injection, 20 nmol NMDA or normal saline in 0.8 μl was injected into the right and left striatum (0.02 μl/min), respectively. The needle was left in place for an additional 8 minutes after injection. Lesion volumes were assessed at 48 hours, 60 hours, or 168 hours after NMDA administration. At the indicated time point after the second injection, the mice were deeply anesthetized, and then perfused with saline and 4% paraformaldehyde. After postfixation and freezing in 20% glycerol-PBS, brain sections (30 μm) were obtained for Nissl staining and immunohistochemistry analysis.
Applicants next assessed whether replacement of WT-AIF-Flag or Pbm-AIF-Flag through lentiviral transduction would restore the sensitivity of Hq mice to NMDA excitotoxicity. […]

Hq MEFs = assay: MNNG cytotoxicity in Hq MEFs; assay type: cell-based, mouse; conditions: Hq MEFs, 24 hours after MNNG 500 μM for 15 min
Procedure: Further, the effect WT-AIF-Flag or Pbm-AIF-Flag on Hq MEF cell viability was determined 24 hours after MNNG (500 μM for 15 min) cytotoxicity with and without zVAD (100 μM), and the results of three trials is reported in FIG. 17B.

[6] = test system: mitochondria of HeLa cells; assay: in vitro AIF release from mitochondria of HeLa cells; conditions: purified PAR, transiently transfected HeLa cells
Procedure: as §2, §3

[7] = test system: Hq mouse cortical neuronal cultures; assay: AIF translocation to the nucleus in Hq cortical neurons; assay type: cell-based
Procedure: as §1, with “For immunocytochemistry, cells were fixed 2 hours after treatment with 4% paraformaldehyde, permeabilized with 0.05% Triton X-100, and blocked with 3% bovine serum albumin in PBS.” left out
Again, AIF translocation to the nucleus was monitored two hours after NMDA (500 μM, 5 minutes) treatment sufficient to initiate parthanatos in wild-type cells.

B1: WT-AIF-Flag: C-terminal Flag-tagged mouse wild type AIF, delivered by lentivirus, AAV2 or transfection (protein, UniProt Q9Z0X1 1-612, looked up)
chain: MFRCGGLAGAFKQKLVPLVRTVYVQRPKQRNRLPGNLFQQWRVPLELQMARQMASSGSSGGKMDNSVLVLIVGLSTIGAGAYAYKTIKEDQKRYNERVMGLGLSPEEKQRRAIASATEGGSVPQIRAPSHVPFLLIGGGTAAFAAARSIRARDPGARVLIVSEDPELPYMRPPLSKELWFSDDPNVTKTLQFRQWNGKERSIYFQPPSFYVSAQDLPNIENGGVAVLTGKKVVHLDVRGNMVKLNDGSQITFEKCLIATGGTPRSLSAIDRAGAEVKSRTTLFRKIGDFRALEKISREVKSITVIGGGFLGSELACALGRKSQASGIEVIQLFPEKGNMGKILPQYLSNWTMEKVKREGVKVMPNAIVQSVGVSGGRLLIKLKDGRKVETDHIVTAVGLEPNVELAKTGGLEIDSDFGGFRVNAELQARSNIWVAGDAACFYDIKLGRRRVEHHDHAVVSGRLAGENMTGAAKPYWHQSMFWSDLGPDVGYEAIGLVDSSLPTVGVFAKATAQDNPKSATEQSGTGIRSESETESEASEITIPPSAPAVPQVPVEGEDYGKGVIFYLRDKVVVGIVLWNVFNRMPIARKIIKDGEQHEDLNEVAKLFNIHED
modifications: full-length C-terminal Flag tag
notes: C-terminal Flag-tagged mouse wild type AIF, delivered by lentivirus, AAV2 or transfection
With B1 the “change of interaction with PAR following MNNG treatment” value (PAR [1]; 2 hours after MNNG 50 μM for 15 min) was “significantly increased”, the “co-immunoprecipitation with PAR” value (PAR [1]; postnuclear fractions, non-MNNG- and MNNG-treated HeLa cells) was “co-immunoprecipitated with PAR in resting cells” and the “effect on susceptibility to NMDA excitotoxicity” value (Hq cortical neurons) was “restored Hq cortical neuron susceptibility to NMDA excitotoxicity”. For the same molecule, the CA1 lesion volume (Hq mice [2]) was “large lesion volume”, the “PAR-induced release from mitochondria” value [3] was “induced the release” and the “change of interaction with PAR following NMDA treatment” value (PAR [4]; 2 hours after 500 μM NMDA for 5 minutes) was “significantly increased”. The “co-immunoprecipitation with PAR” value (PAR [4]; postnuclear fractions, non-NMDA- and NMDA-treated cultures) was “pulled down”, the “nuclear translocation after MNNG” value (HeLa cells) was “translocated to the nucleus 4 hours following MNNG treatment” and the “sensitivity to NMDA excitotoxicity (lesion volume)” value (Hq mice [5]; lentivirus in striatum, NMDA 20 nmol, 48 hours or 60 hours) was “restored sensitivity to NMDA excitotoxicity”. For the same molecule, the “survival after the NMDA injection” value (Hq mice [5]; lentivirus-injected Hq mice, WT-AIF-Flag with one exception) was under 168 h, the “effect on MNNG-induced cell death” value (Hq MEFs) was “restored their susceptibility to MNNG toxicity” and the “PAR-induced release from mitochondria” value [6] was “induced the release”. For the same molecule, the “translocation to the nucleus after staurosporine” value ([7]; 100 nM staurosporine, 24 hours) was “translocate from the mitochondria to the nucleus” and the “translocation to the nucleus after NMDA” value ([7]; two hours after NMDA (500 μM, 5 minutes), immunoblot of fractions or confocal image analysis) was “translocated to the nucleus; also recorded: observed in the nucleus”.
